Biological target: T1, L1CAM (L1 cell adhesion molecule, CD171), human (human, UniProt P32004 20-1257)
T1 construct: whole, on cells; The target sat on L1CAM-expressing cells (SCK-L1, Choi-CK, TFK-1); For the western blots it was the membrane protein fraction of those cells after SDS-PAGE; also called 막 L1CAM; membrane L1CAM
Test: confocal microscopy of L1CAM-expressing cells treated with Ab417 (10 ㎍/mL); surface-bound antibody detected with anti-human IgG

T1 sequence (P32004 20-1257): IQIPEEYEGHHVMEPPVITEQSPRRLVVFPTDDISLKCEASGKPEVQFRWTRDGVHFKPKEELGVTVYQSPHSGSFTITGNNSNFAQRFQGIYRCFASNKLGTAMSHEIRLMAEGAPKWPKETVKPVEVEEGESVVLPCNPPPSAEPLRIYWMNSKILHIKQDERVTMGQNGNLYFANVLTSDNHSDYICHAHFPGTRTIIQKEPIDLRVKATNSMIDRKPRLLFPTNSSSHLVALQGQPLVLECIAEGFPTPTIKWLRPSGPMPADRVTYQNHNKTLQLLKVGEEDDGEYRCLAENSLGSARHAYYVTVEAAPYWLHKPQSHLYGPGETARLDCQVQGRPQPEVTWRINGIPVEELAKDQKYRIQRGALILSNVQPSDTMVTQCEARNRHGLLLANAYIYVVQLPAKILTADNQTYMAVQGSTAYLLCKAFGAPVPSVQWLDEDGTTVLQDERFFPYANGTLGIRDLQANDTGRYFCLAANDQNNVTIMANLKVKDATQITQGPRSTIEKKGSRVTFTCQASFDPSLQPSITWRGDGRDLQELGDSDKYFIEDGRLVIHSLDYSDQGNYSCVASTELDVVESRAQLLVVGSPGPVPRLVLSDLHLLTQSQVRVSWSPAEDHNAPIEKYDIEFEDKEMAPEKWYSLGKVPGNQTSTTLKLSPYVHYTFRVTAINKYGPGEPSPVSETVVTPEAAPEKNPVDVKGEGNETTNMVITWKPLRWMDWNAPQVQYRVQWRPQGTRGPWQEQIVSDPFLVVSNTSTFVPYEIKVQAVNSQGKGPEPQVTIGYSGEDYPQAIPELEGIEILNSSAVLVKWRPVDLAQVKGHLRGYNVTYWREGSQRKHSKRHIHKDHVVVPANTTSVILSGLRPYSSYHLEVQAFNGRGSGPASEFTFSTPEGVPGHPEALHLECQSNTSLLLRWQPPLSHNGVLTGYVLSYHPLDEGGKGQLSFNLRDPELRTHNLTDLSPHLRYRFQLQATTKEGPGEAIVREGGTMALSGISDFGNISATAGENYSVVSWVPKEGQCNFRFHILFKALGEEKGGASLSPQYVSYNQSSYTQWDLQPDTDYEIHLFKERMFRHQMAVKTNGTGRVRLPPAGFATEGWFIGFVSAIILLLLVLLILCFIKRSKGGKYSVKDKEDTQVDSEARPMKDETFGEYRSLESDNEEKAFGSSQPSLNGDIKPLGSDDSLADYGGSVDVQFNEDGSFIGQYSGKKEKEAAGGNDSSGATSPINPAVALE

binding result: binds
B1: Ab417 항체 (anti-L1CAM antibody Ab417) (antibody, V domains shown)
VH: EVQLVESGGGVVQPGRSLRLSCAASGFTFSRFGMHWVRQAPGKGLEWVAFISNDGSNKYYADSVKGRFTISRDNSKNTLYLQMNSLRPEDTAVYYCARGRAYGSGSLFDPWGQGTLVTVSS
VL: DIQLTQSPSSLSASVGDRVTITCRASRTISIYVNWYRQRPGKAPESLIYAASNLHSGVPSRFSGSGSGTDFTLTISSLQPEDFATYYCQQSIGRGVVTFGQGTKLEIK
notes: It is a whole antibody made in CHO-DG44 cell line #9-20 and purified on protein A. It was detected with anti-human IgG (H+L) and anti-human IgG (Fc-specific)
